Test results taken from patent US20240368668A1, “SUBSTRATES AND BIOMARKERS OF ADAMTS7” (The Broad Institute, Inc., priority 2021, published 2024).

biological target: T1, mouse ADAMTS7 (Mus musculus, UniProt Q68SA9, E373Q); experiment: TMT10 TAILS N-terminomics, HUVEC experiment (process replicates, trypsin/AspN digest); type: cell-based, human; details: HUVEC TAILS HC; log fold change of N-terminal peptide, Ad-mADAMTS7 EQ over Luc
T1 construct: Full-length mouse Adamts7 1-1857 (Uniprot Q68SA9, WT or E373Q catalytic mutant); expressed in transfected cells; host or cells: Human Coronary Artery Smooth Muscle Cells (HCA-SMC, Lonza), adenovirus 50 MOI
T1 sequence (Q68SA9 221-1657 E373Q): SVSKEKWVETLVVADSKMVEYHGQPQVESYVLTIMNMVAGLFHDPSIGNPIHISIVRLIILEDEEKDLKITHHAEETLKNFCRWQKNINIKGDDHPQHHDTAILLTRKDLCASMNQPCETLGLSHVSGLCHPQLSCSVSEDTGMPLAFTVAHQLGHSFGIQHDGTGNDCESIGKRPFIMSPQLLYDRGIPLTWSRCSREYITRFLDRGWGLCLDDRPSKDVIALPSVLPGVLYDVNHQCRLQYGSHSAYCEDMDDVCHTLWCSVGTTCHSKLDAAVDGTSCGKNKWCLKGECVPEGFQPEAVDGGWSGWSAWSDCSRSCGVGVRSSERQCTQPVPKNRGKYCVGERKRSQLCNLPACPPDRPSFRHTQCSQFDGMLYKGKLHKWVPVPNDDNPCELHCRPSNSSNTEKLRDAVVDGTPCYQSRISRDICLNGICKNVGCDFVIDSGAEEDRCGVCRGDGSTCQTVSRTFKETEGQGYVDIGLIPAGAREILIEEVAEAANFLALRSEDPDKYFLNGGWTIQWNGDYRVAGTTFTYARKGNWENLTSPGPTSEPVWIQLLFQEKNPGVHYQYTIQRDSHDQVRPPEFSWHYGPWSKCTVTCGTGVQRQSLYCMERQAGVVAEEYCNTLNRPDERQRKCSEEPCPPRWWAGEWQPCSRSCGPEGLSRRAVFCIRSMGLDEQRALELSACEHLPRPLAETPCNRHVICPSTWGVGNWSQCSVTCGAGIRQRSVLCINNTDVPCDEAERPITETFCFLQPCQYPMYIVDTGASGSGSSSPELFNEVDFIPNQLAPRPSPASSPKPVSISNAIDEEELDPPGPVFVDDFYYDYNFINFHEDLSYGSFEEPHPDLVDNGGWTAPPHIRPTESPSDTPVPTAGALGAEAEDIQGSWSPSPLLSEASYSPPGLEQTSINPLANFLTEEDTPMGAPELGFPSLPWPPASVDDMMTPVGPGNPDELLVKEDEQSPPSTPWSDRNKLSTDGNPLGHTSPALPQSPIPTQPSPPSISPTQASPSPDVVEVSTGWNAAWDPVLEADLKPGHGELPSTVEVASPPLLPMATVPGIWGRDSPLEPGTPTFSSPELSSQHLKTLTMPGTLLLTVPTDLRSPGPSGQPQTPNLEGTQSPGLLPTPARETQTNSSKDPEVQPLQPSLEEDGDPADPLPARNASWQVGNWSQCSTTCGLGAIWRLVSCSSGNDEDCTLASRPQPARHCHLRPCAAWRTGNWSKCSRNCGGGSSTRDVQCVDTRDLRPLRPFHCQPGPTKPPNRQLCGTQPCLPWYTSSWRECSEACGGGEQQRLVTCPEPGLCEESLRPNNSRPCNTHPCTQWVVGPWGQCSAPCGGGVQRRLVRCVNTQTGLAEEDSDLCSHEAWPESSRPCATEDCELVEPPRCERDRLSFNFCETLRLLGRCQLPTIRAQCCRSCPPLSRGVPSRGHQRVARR
In short: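 Full-length mouse ADAMTS7 (WT or E373Q mutant, C-terminal 3xFLAG) or luciferase was transduced via adenovirus, 50 MOI, into HCA-SMC (SMC1, SMC2) or HUVEC. SMC1: pooled media, technical triplicates 400 ug; SMC2: process triplicates 300 ug; HUVEC: process triplicates 200 ug, bFGF2 10 ng/ml.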

logFC.mEQ.over.Luc | Substance
−0.84 | COL18A1_1505 (LQPPVVQLHDSNPYPR; listed as Homo sapiens)
−0.38 | LTBP2_79 (VAGLQPVER; listed as Homo sapiens)
−0.22 | LTBP2_502 (LVENSVETRPPPWLPASPGHSLW; listed as Homo sapiens)
−0.60 | LTBP3_208 (FLVPLGPGQISA; listed as Homo sapiens)
−0.17 | SPOCK1_27 (LAGGAGPNHGNFL; listed as Homo sapiens)

The next lines start with the substance.

Substance | logFC.mEQ.over.Luc
LTBP2_250 (SAAGEGTLAR; listed as Homo sapiens) | 0.12
MAP4_815 (AVASTGPSSR; listed as Homo sapiens) | 0.36
MAP4_816 (VASTGPSSR; listed as Homo sapiens) | 0.08
NID1_360 (FHQQHPQVI; listed as Homo sapiens) | −0.30
NID2_291 (HSSVPLGR; listed as Homo sapiens) | −0.10
NUCB1_317 (FLASTQR; listed as Homo sapiens) | 0.06
NUCB1_389 (LQQAVLHMEQR; listed as Homo sapiens) | −0.22
SERBP1_56 (QAAAQTNSNAAGKQLR; listed as Homo sapiens) | −0.20
SRGN_59 (LLPGESNKIPR; listed as Homo sapiens) | −0.13
THBS2_290 (LSENLKR; listed as Homo sapiens) | 0.64
